The target in one series is PUF design 2 (human, UniProt Q14671 828-1176, C935T;R936H;Q939E;N971T;H972F;Q975R). Briefly: EMSA; 10 mM HEPES pH 7.3, 50 mM NaCl, 2 mM DTT, 0.05% Tween 20, 0.1 mg/ml BSA, 0.1 mg/ml yeast tRNA; ~10 nM RNA, 0-1 uM protein, 1 h on ice; 1.2% agarose gel, 1x TBE, room temperature. The conditions noted are these: protein: recombinant; tags: N-terminal GST (pGEX-6P-1) removed by HRV3C protease; label: 5' 32P. In general terms: Mobility shift assays separate free from complexed probe on a gel.

Another series concerns the target PUF variant QFR/VFQ (human, UniProt Q14671 828-1176, S863Q;R864F;Q867R;N899V;Y900F). The series is described as above. The settings on record: protein: recombinant; tags: N-terminal GST (pGEX-6P-1) removed by HRV3C protease; label: 5' 32P.

Sequence of PUF design 2 (Q14671 828-1176 C935T/R936H/Q939E/N971T/H972F/Q975R): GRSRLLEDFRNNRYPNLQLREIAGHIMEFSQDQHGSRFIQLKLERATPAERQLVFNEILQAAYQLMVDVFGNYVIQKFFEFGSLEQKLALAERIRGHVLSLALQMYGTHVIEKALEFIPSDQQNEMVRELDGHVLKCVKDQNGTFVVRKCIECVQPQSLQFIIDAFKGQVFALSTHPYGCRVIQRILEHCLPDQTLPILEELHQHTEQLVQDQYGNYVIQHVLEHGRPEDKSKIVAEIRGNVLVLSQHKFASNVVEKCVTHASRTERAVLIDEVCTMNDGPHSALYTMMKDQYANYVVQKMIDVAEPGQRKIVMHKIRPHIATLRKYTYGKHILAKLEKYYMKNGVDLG
Sequence of PUF variant QFR/VFQ (Q14671 828-1176 S863Q/R864F/Q867R/N899V/Y900F): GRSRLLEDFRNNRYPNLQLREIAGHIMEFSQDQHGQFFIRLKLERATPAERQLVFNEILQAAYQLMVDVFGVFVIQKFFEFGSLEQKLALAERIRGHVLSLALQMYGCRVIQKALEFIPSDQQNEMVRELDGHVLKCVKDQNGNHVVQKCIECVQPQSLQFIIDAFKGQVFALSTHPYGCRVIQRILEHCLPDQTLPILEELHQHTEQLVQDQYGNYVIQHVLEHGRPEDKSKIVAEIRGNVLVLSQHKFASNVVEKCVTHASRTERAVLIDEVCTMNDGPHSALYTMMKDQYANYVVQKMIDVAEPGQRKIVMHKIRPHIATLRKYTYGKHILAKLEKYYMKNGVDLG

B1: design 2 target RNA (ssRNA)
RNA: GGUAAGUGUACGUAGUCUGCAU
For B1, the Kd – broadly, a measure of binding affinity in units of concentration – with PUF design 2 was approximately 0.045 µM.

B2: QFR/VFQ target RNA (ssRNA)
RNA: GGUAAGUGUAAAACGUCUGCAU
Regarding B2, in the series with PUF variant QFR/VFQ, the Kd is approximately 0.11 µM.

B3: wild-type NRE RNA (ssRNA)
RNA: GGUAAGUGUAAAUAGUCUGCAU
Take B3: the binding result with PUF variant QFR/VFQ and with PUF design 2 was “no binding” throughout.

Source of the values: paper PMC8384837, “Expanding the binding specificity for RNA recognition by a PUF domain”.
